Reference: US20230250154A1 (CYTONICS, published 2023)

Legend:
Experiment in all cases: cell-based or functional assay
ADAMTS4 = target: T1, ADAMTS4 (human, UniProt O75173 213-685, limits assumed)
T1 sequence (looked up): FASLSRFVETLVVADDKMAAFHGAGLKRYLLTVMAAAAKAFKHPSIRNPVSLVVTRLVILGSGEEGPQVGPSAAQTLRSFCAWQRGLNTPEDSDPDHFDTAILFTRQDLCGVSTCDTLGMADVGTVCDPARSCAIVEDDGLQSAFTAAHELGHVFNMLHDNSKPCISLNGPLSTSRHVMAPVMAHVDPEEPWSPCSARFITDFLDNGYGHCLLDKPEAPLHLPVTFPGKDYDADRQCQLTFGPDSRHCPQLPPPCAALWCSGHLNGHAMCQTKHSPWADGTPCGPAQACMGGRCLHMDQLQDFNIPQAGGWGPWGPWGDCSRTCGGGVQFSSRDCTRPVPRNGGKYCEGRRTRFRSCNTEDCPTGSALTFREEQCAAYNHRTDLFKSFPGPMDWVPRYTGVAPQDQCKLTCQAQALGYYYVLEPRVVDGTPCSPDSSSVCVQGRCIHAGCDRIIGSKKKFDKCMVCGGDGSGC

ADAMTS5 = target: T2, ADAMTS5 (human, UniProt Q9UNA0 262-622, limits assumed)
T2 sequence (looked up): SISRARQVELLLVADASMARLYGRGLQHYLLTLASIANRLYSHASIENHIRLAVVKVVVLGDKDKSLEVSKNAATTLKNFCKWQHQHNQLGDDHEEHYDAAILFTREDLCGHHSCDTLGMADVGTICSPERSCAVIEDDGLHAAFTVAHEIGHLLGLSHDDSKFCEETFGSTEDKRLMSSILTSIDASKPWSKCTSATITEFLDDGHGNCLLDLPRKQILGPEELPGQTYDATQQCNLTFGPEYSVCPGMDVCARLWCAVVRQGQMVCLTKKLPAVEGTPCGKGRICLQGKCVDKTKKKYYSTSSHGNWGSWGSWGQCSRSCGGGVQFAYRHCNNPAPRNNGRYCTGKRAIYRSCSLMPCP

MMP1 = target: T3, MMP1 (human, UniProt P03956 100-469, limits assumed)
T3 sequence (looked up): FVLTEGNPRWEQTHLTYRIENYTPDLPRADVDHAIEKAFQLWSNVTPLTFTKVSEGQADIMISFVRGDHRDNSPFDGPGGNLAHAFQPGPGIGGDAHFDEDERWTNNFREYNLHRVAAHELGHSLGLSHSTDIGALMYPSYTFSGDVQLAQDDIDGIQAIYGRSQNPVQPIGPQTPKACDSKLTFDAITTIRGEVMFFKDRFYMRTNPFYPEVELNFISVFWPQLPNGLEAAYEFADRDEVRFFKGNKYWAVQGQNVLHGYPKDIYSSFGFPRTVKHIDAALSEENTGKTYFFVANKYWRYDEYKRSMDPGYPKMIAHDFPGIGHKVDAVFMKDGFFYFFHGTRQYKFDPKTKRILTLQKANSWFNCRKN

MMP8 = MMP8 (human, UniProt P22894 101-467, limits assumed)
Sequence of MMP8 (P22894 101-467 limits assumed): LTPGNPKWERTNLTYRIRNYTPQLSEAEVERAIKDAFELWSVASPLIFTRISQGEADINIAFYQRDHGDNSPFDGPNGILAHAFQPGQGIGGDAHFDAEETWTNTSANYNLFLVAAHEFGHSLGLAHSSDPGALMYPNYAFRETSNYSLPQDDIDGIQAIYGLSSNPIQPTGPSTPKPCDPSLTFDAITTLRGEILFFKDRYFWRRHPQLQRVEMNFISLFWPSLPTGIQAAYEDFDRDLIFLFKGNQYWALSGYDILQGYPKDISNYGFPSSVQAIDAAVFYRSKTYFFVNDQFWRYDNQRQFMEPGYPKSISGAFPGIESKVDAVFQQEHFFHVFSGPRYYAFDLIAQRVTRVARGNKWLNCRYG

MMP13 = MMP13 (human, UniProt P45452 104-471, limits assumed)
MMP2 = target: T4, MMP2 (human, UniProt P08253 110-660, limits assumed)
T4 sequence (looked up): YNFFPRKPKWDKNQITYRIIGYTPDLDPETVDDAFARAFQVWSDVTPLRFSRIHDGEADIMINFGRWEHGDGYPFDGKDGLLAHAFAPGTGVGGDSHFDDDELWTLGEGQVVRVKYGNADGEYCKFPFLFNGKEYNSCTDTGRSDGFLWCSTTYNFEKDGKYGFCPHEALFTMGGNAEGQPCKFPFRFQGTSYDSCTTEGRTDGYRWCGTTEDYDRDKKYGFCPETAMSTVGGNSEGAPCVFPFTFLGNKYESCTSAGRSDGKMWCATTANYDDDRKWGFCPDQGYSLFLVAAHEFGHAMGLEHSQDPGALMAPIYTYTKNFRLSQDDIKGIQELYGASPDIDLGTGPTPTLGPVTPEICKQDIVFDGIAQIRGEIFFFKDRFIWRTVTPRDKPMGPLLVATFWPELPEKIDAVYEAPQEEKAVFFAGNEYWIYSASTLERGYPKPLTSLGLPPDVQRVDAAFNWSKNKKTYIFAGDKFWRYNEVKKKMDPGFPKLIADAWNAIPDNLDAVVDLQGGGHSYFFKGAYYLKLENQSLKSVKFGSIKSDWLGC

MMP9 = MMP9 (human, UniProt P14780 107-707, limits assumed)
Sequence of MMP9 (P14780 107-707 limits assumed): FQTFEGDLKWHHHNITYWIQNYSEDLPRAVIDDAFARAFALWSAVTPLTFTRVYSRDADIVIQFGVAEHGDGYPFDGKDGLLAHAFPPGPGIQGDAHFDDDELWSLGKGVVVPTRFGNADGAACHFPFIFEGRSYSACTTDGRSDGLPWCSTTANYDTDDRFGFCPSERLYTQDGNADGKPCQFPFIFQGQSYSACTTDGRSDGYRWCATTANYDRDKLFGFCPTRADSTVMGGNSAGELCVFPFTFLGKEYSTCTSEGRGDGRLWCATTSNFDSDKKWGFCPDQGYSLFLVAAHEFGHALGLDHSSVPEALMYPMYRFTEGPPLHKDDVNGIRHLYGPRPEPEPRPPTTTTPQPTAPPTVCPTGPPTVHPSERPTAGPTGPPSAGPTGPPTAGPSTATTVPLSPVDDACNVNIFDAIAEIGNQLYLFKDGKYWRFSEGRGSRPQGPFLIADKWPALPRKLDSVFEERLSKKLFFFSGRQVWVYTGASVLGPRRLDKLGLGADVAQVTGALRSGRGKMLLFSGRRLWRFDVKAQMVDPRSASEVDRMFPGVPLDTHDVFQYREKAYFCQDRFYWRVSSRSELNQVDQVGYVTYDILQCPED

MMP3 = MMP3 (human, UniProt P08254 100-477, limits assumed)
Sequence of MMP3 (P08254 100-477 limits assumed): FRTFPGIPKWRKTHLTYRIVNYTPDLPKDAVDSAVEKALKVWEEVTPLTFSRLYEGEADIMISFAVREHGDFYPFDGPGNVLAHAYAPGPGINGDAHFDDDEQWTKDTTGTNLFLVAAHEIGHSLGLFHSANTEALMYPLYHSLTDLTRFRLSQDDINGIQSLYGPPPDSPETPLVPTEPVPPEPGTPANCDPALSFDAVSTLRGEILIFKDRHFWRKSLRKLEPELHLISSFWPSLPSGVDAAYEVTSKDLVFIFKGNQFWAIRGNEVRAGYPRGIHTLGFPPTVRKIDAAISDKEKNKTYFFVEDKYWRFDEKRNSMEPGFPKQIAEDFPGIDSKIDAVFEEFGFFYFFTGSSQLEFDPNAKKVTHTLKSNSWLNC

B1: Variant A2M, bait region SEQ ID NO 92 (other)
chain: SVSGKPQYMVLVPSLLHTETTEKGCVLLSYLNETVTVSASLESVRGNRSLFTDLEAENDVLHCVAFAVPKSSSNEEVMFLTVQVKGPTQEFKKRTTVMVKNEDSLVFVQTDKSIYKPGQTVKFRVVSMDENFHPLNELIPLVYIQDPKGNRIAQWQSFQLEGGLKQFSFPLSSEPFQGSYKVVVQKKSGGRTEHPFTVEEFVLPKFEVQVTVPKIITILEEEMNVSVCGLYTYGKPVPGHVTVSICRKYSDASDCHGEDSQAFCEKFSGQLNSHGCFYQQVKTKVFQLKRKEYEMKLHTEAQIQEEGTVVELTGRQSSEITRTITKLSFVKVDSHFRQGIPFFGQVRLVDGKGVPIPNKVIFIRGNEANYYSNATTDEHGLVQFSINTTNVMGTSLTVRVNYKDRSPCYGYQWVSEEHEEAHHTAYLVFSPSKSFVHLEPMSHELPCGHTQTVQAHYILNGGTLLGLKKLSFYYLIMAKGGIVRTGTHGLLVKQEDMKGHFSISIPVKSDIAPVARLLIYAVLPTGDVIGDSAKYDVENCLANKVDLSFSPSQSLPASHAHLRVTAAPQSVCALRAVDQSVLLMKPDAELSASSVYNLLPEKDLTGFPGPLNDQDDEDCINRHNVYINGITYTPVSSTNEKDMYSFLEDMGLKAFTNSKIRKPKMCPQLEQYEMHGPEGLRVGTAQEAGEGFYESDVMGRGHARLVHVEEPHTKLLRKYFPETWIWDLVVVNSAGVAEVGVTVPDTITEWKAGAFCLSEDAGLGISSTASLRAFQPFFVELTMPYSVIRGEAFTLKATVLNYLPKCIRVSVQLEASPAFLAVPVEKEQAPHCICANGRQTVSWAVTPKSLGNVNFTVSAEALESQELCGTEVPSVPEHGRKDTVIKPLLVEPEGLEKETTFNSLLCPSGGEVSEELSLKLPPNVVEESARASVSVLGDILGSAMQNTQNLLQMPYGCGEQNMVLFAPNIYVLDYLNETQQLTPEIKSKAIGYLNTGYQRQLNYKHYDGSYSTFGERYGRNQGNTWLTAFVLKTFAQARAYIFIDEAHITQALIWLSQRQKDNGCFRSSGSLLNNAIKGGVEDEVTLSAYITIALLEIPLTVTHPVVRNALFCLESAWKTAQEGDHGSHVYTKALLAYAFALAGNQDKRKEVLKSLNEEAVKKDNSVHWERPQKPKAPVGHFYEPQAPSAEVEMTSYVLLAYLTAQPAPTSEDLTSATNIVKWITKQQNAQGGFSSTQDTVVALHALSKYGAATFTRTGKAAQVTIQSSGTFSSKFQVDNNNRLLLQQVSLPELPGEYSMKVTGEGCVYLQTSLKYNILPEKEEFPFALGVQTLPQTCDEPKAHTSFQISLSVSYTGSRSASNMAIVDVKMVSGFIPLKPTVKMLERSNHVSRTEVSSNHVLIYLDKVSNQTLSLFFTVLQDVPVRDLKPAIVKVYDYYETDEFAIAEYNAPCSKDLGNADYKDDDDKGASHHHHHH
Protease Inhibition (% of WT) (ADAMTS4): 210 % of WT | Protease Inhibition (% of WT) (ADAMTS5): 250 % of WT | Protease Inhibition (% of WT) (MMP1): 170 % of WT | Protease Inhibition (% of WT) (MMP8): 160 % of WT | Protease Inhibition (% of WT) (MMP13): 90 % of WT | Protease Inhibition (% of WT) (MMP2): 110 % of WT | Protease Inhibition (% of WT) (MMP9): 50 % of WT | Protease Inhibition (% of WT) (MMP3): 80 % of WT

B2: Variant A2M, bait region SEQ ID NO 87 (other)
chain: SVSGKPQYMVLVPSLLHTETTEKGCVLLSYLNETVTVSASLESVRGNRSLFTDLEAENDVLHCVAFAVPKSSSNEEVMFLTVQVKGPTQEFKKRTTVMVKNEDSLVFVQTDKSIYKPGQTVKFRVVSMDENFHPLNELIPLVYIQDPKGNRIAQWQSFQLEGGLKQFSFPLSSEPFQGSYKVVVQKKSGGRTEHPFTVEEFVLPKFEVQVTVPKIITILEEEMNVSVCGLYTYGKPVPGHVTVSICRKYSDASDCHGEDSQAFCEKFSGQLNSHGCFYQQVKTKVFQLKRKEYEMKLHTEAQIQEEGTVVELTGRQSSEITRTITKLSFVKVDSHFRQGIPFFGQVRLVDGKGVPIPNKVIFIRGNEANYYSNATTDEHGLVQFSINTTNVMGTSLTVRVNYKDRSPCYGYQWVSEEHEEAHHTAYLVFSPSKSFVHLEPMSHELPCGHTQTVQAHYILNGGTLLGLKKLSFYYLIMAKGGIVRTGTHGLLVKQEDMKGHFSISIPVKSDIAPVARLLIYAVLPTGDVIGDSAKYDVENCLANKVDLSFSPSQSLPASHAHLRVTAAPQSVCALRAVDQSVLLMKPDAELSASSVYNLLPEKDLTGFPGPLNDQDDEDCINRHNVYINGITYTPVSSTNEKDMYSFLEDMGLKAFTNSKIRKPKMCPQLEQYEMHGPEGLRVGKEEEGLGSSELEGRGSTAQEAGEGKLRKYFPETWIWDLVVVNSAGVAEVGVTVPDTITEWKAGAFCLSEDAGLGISSTASLRAFQPFFVELTMPYSVIRGEAFTLKATVLNYLPKCIRVSVQLEASPAFLAVPVEKEQAPHCICANGRQTVSWAVTPKSLGNVNFTVSAEALESQELCGTEVPSVPEHGRKDTVIKPLLVEPEGLEKETTFNSLLCPSGGEVSEELSLKLPPNVVEESARASVSVLGDILGSAMQNTQNLLQMPYGCGEQNMVLFAPNIYVLDYLNETQQLTPEIKSKAIGYLNTGYQRQLNYKHYDGSYSTFGERYGRNQGNTWLTAFVLKTFAQARAYIFIDEAHITQALIWLSQRQKDNGCFRSSGSLLNNAIKGGVEDEVTLSAYITIALLEIPLTVTHPVVRNALFCLESAWKTAQEGDHGSHVYTKALLAYAFALAGNQDKRKEVLKSLNEEAVKKDNSVHWERPQKPKAPVGHFYEPQAPSAEVEMTSYVLLAYLTAQPAPTSEDLTSATNIVKWITKQQNAQGGFSSTQDTVVALHALSKYGAATFTRTGKAAQVTIQSSGTFSSKFQVDNNNRLLLQQVSLPELPGEYSMKVTGEGCVYLQTSLKYNILPEKEEFPFALGVQTLPQTCDEPKAHTSFQISLSVSYTGSRSASNMAIVDVKMVSGFIPLKPTVKMLERSNHVSRTEVSSNHVLIYLDKVSNQTLSLFFTVLQDVPVRDLKPAIVKVYDYYETDEFAIAEYNAPCSKDLGNADYKDDDDKGASHHHHHH
Protease Inhibition (% of WT) (ADAMTS4): 160 % of WT | Protease Inhibition (% of WT) (ADAMTS5): 170 % of WT | Protease Inhibition (% of WT) (MMP1): 150 % of WT | Protease Inhibition (% of WT) (MMP8): 40 % of WT | Protease Inhibition (% of WT) (MMP13): 150 % of WT | Protease Inhibition (% of WT) (MMP2): 100 % of WT | Protease Inhibition (% of WT) (MMP9): 70 % of WT | Protease Inhibition (% of WT) (MMP3): 40 % of WT
